Assay results reported in patent US11969458B2, “Formula of neuregulin preparation” (Zensun (Shanghai) Science & Technology, Co., Ltd., priority 2014, dated 2024).

What was measured:
[1] = Narrow pH stability study of rhNRG-1 (pH 2.3 to 4.3) by RP-HPLC with Arrhenius shelf life prediction; type: physicochemical
Experimental: In a plastic tube, add the API and DI-water. Mix into a solution containing 0.25 mg/mL rhNRG-1, 4 mM phosphate (from the API) and 0.1M NaCl (from the API). Adjust pH down using a diluted HCl. Once the first target is reached, transfer about 8 mL into a separate plastic tube and continue the titration to hit the next target and collect about 8 mL at each target (i.e. 4.29, 3.90, 3.78, 3.47, 3.36, 3.17, 3.02, 2.85, 2.58, 2.37 and 2.33). For each pH, transfer into glass vials for total 5 vials each level. Place one vial each at 2-8, 25, 40, 50 and 60° C. […]
For 40° C., remove 200 μL and test by HPLC after 0, 5.7, 7 and 11 days
Construct a narrow range pH-rate (stability) profile at each temperature.
Derive an Arrhenius equation and predict shelf life at 5° C.
Using the 40, 50 and 60° C. data for each pH (2.3 to 3.9), an Arrhenius plot was used to predict the shelf life at 5° C. for each pH level. The T90 values calculated from the Arrhenius plots are provided as follows (Table 11): […]

[2] = Forced degradation study of rhNRG-1 (oxidation with H2O2), RP-HPLC; type: physicochemical; details: for rhNRG-1 conc.: 0.06% H2O2, RT
Experimental: The API solution was forced to degrade as follow (Table 12):
The samples collected at time point was analyzed by the RP-HPLC.

[3] = pH 2.37, predicted shelf life at 5° C. from Arrhenius plot
[4] = pH 2.58, predicted shelf life at 5° C. from Arrhenius plot
[5] = pH 3.02, predicted shelf life at 5° C. from Arrhenius plot
[6] = pH 3.36, predicted shelf life at 5° C. from Arrhenius plot
[7] = pH 3.90, predicted shelf life at 5° C. from Arrhenius plot

B1: rhNRG-1: proteins or peptides which consist of amino acid sequence of SEQ ID NO: 2 (protein, listed as Homo sapiens)
chain: SHLVKCAEKEKTFCVNGGECFMVKDLSNPSRYLCKCPNEFTGDRCQNYVMASFYKAEELYQ
pH of the best stability, narrow pH study ([1]; pH 2.3 to 4.3): 3.4 (±0.2)
Initial Conc ([1]; pH 2.37 (diluted HCl)): 0.241 mg/mL
% over initial conc. ([1]; pH 2.37, 40° C., 5.7 days): 90%
% over initial conc. ([1]; pH 2.37, 40° C., 7 days): 83%
% over initial conc. ([1]; pH 2.37, 40° C., 11 days): 77%
% over initial conc. ([1]; pH 2.37, 50° C., 5.7 days): 82%
% over initial conc. ([1]; pH 2.37, 50° C., 7 days): 53%
% over initial conc. ([1]; pH 2.37, 50° C., 11 days): 36%
% over initial conc. ([1]; pH 2.37, 60° C., 3.7 days): 55%
% over initial conc. ([1]; pH 2.37, 60° C., 4.7 days): 57%
% over initial conc. ([1]; pH 2.37, 60° C., 5.7 days): 43%
T90 [1, 3]: 166 days
T90 (months) [1, 3]: 6 months
Initial Conc ([1]; pH 2.58 (diluted HCl)): 0.238 mg/mL
% over initial conc. ([1]; pH 2.58, 40° C., 5.7 days): 96%
% over initial conc. ([1]; pH 2.58, 40° C., 7 days): 89%
% over initial conc. ([1]; pH 2.58, 40° C., 11 days): 83%
% over initial conc. ([1]; pH 2.58, 50° C., 5.7 days): 90%
% over initial conc. ([1]; pH 2.58, 50° C., 7 days): 54%
% over initial conc. ([1]; pH 2.58, 50° C., 11 days): 35%
% over initial conc. ([1]; pH 2.58, 60° C., 3.7 days): 62%
% over initial conc. ([1]; pH 2.58, 60° C., 4.7 days): 60%
% over initial conc. ([1]; pH 2.58, 60° C., 5.7 days): 55%
T90 [1, 4]: 317 days
T90 (months) [1, 4]: 11 months
Initial Conc ([1]; pH 3.02 (diluted HCl)): 0.236 mg/mL
% over initial conc. ([1]; pH 3.02, 40° C., 5.7 days): 99%
% over initial conc. ([1]; pH 3.02, 40° C., 7 days): 94%
% over initial conc. ([1]; pH 3.02, 40° C., 11 days): 88%
% over initial conc. ([1]; pH 3.02, 50° C., 5.7 days): 95%
% over initial conc. ([1]; pH 3.02, 50° C., 7 days): 79%
% over initial conc. ([1]; pH 3.02, 50° C., 11 days): 70%
% over initial conc. ([1]; pH 3.02, 60° C., 3.7 days): 70%
% over initial conc. ([1]; pH 3.02, 60° C., 4.7 days): 68%
% over initial conc. ([1]; pH 3.02, 60° C., 5.7 days): 0%
T90 [1, 5]: 612 days
T90 (months) [1, 5]: 20 months
Initial Conc ([1]; pH 3.36 (diluted HCl)): 0.230 mg/mL
% over initial conc. ([1]; pH 3.36, 40° C., 5.7 days): 101%
% over initial conc. ([1]; pH 3.36, 40° C., 7 days): 97%
% over initial conc. ([1]; pH 3.36, 40° C., 11 days): 90%
% over initial conc. ([1]; pH 3.36, 50° C., 5.7 days): 99%
% over initial conc. ([1]; pH 3.36, 50° C., 7 days): 85%
% over initial conc. ([1]; pH 3.36, 50° C., 11 days): 76%
% over initial conc. ([1]; pH 3.36, 60° C., 3.7 days): 77%
% over initial conc. ([1]; pH 3.36, 60° C., 4.7 days): 69%
% over initial conc. ([1]; pH 3.36, 60° C., 5.7 days): 63%
T90 [1, 6]: 1092 days
T90 (months) [1, 6]: 36 months
Initial Conc ([1]; pH 3.90 (diluted HCl)): 0.230 mg/mL
% over initial conc. ([1]; pH 3.90, 40° C., 5.7 days): 101%
% over initial conc. ([1]; pH 3.90, 40° C., 7 days): 96%
% over initial conc. ([1]; pH 3.90, 40° C., 11 days): 88%
% over initial conc. ([1]; pH 3.90, 50° C., 5.7 days): 102%
% over initial conc. ([1]; pH 3.90, 50° C., 7 days): 88%
% over initial conc. ([1]; pH 3.90, 50° C., 11 days): 79%
% over initial conc. ([1]; pH 3.90, 60° C., 3.7 days): 83%
% over initial conc. ([1]; pH 3.90, 60° C., 4.7 days): 81%
% over initial conc. ([1]; pH 3.90, 60° C., 5.7 days): 73%
T90 [1, 7]: 239 days
T90 (months) [1, 7]: 8 months
Initial Conc ([1]; pH 4.29 (diluted HCl)): 0.235 mg/mL
% over initial conc. ([1]; pH 4.29, 50° C., 5.7 days): 100%
% over initial conc. ([1]; pH 4.29, 50° C., 11 days): 78%
% over initial conc. ([1]; pH 4.29, 60° C., 3.7 days): 80%
% over initial conc. ([1]; pH 4.29, 60° C., 5.7 days): 72%
sensitivity to oxidation ([2]; H2O2 exposure): very sensitive to peroxide and prone to oxidation
rhNRG-1 conc. ([2]; Oxidation exposure 0.3 hours): 0.24 mg/mL
rhNRG-1 conc. ([2]; Oxidation exposure 2.4 hours): 0.15 mg/mL
rhNRG-1 conc. ([2]; Oxidation exposure 4.5 hours): 0.10 mg/mL
rhNRG-1 conc. ([2]; Oxidation exposure 7.1 hours): 0.07 mg/mL
